We go through 24 sequences from the supplement of paper PMC9428881.

± gives the standard error.

The data set can be described thus: background-corrected fluorescence of 3'-dye-labeled ssDNA relative to brightest sequence (3'-GCGCG) (fraction); higher = brighter dye fluorescence (less quenching). The procedure, abridged:
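Light-directed phosphoramidite synthesis on glass slides produced single-stranded DNA carrying a 3' Cy3 or Cy5 dye next to each of 1024 permuted pentamers. After a 2 h acetonitrile wash at r.t., arrays were scanned at 532 or 635 nm both before and after overnight deprotection in ethylenediamine/ethanol. Every value is the mean of 10 features per array over at least 3 syntheses. Fluorescence had unlabeled-oligo background subtracted and was scaled to the brightest sequence.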

As for “TTTTTTGCTGCTGATGAGCATTTTTTTTTTTTTTTAACCT [TCCAA]”, the background-corrected fluorescence by setting is: (dye: Cy3 (3' terminal)) 0.459 ± 0.016; (dye: Cy5 (3' terminal)) 0.36 ± 0.039.
Taken in the same sequence, the figures for “TTTTTTGCTGCTGATGATCATTTTTTTTTTTTTTTAACCG [GCCAA]” were 0.545 ± 0.036 and 0.42 ± 0.035.
Taken in the same sequence, the figures for “TTTTTTGCTGCTGATGATGATTTTTTTTTTTTTTTAACCC [CCCAA]” were 0.392 ± 0.021 and 0.294 ± 0.016.
“TTTTTTGCTGCTGATGATGCTTTTTTTTTTTTTTTAACCA [ACCAA]”: the background-corrected fluorescence by setting is: (dye: Cy3 (3' terminal)) 0.492 ± 0.017; (dye: Cy5 (3' terminal)) 0.375 ± 0.053.
Taken in the same sequence, the figures for “TTTTTTGCTGCTGATGCGCATTTTTTTTTTTTTTTAACAT [TACAA]” were 0.529 ± 0.035 and 0.374 ± 0.021.
Taken in the same sequence, the figures for “TTTTTTGCTGCTGATGCTCATTTTTTTTTTTTTTTAACAG [GACAA]” were 0.576 ± 0.02 and 0.421 ± 0.019.
For “TTTTTTGCTGCTGATGCTGATTTTTTTTTTTTTTTAACAC [CACAA]” the same measures were 0.421 ± 0.035 and 0.306 ± 0.021.
For the sequence “TTTTTTGCTGCTGATGCTGCTTTTTTTTTTTTTTTAACAA”, the background-corrected fluorescence was 0.527 ± 0.024 (dye: Cy3 (3' terminal)) and 0.419 ± 0.024 (dye: Cy5 (3' terminal)).
For “TTTTTTGCTGCTGCGCAGCATTTTTTTTTTTTTTTAAATT” the same measures were 0.543 ± 0.048 and 0.401 ± 0.019.
For the sequence “TTTTTTGCTGCTGCGCATCATTTTTTTTTTTTTTTAAATG [GTAAA]”, the background-corrected fluorescence reads like this: (dye: Cy3 (3' terminal)) 0.499 ± 0.015; (dye: Cy5 (3' terminal)) 0.375 ± 0.035.
For “TTTTTTGCTGCTGCGCATGATTTTTTTTTTTTTTTAAATC [CTAAA]” the same measures were 0.439 ± 0.019 and 0.306 ± 0.019.
For “TTTTTTGCTGCTGCGCATGCTTTTTTTTTTTTTTTAAATA [ATAAA]” the same measures were 0.564 ± 0.053 and 0.451 ± 0.031.
For the sequence “TTTTTTGCTGCTGCTCAGCATTTTTTTTTTTTTTTAAAGT [TGAAA]”, the background-corrected fluorescence came out at 0.653 ± 0.026 (dye: Cy3 (3' terminal)) and 0.514 ± 0.049 (dye: Cy5 (3' terminal)).
Taken in the same sequence, the figures for “TTTTTTGCTGCTGCTCATCATTTTTTTTTTTTTTTAAAGG [GGAAA]” were 0.646 ± 0.026 and 0.502 ± 0.032.
For “TTTTTTGCTGCTGCTCATGATTTTTTTTTTTTTTTAAAGC [CGAAA]” the same measures were 0.538 ± 0.018 and 0.426 ± 0.021.
For “TTTTTTGCTGCTGCTCATGCTTTTTTTTTTTTTTTAAAGA [AGAAA]” the same measures were 0.693 ± 0.03 and 0.568 ± 0.03.
Regarding “TTTTTTGCTGCTGCTGAGCATTTTTTTTTTTTTTTAAACT [TCAAA]”, the background-corrected fluorescence is, setting by setting: (dye: Cy3 (3' terminal)) 0.496 ± 0.0053; (dye: Cy5 (3' terminal)) 0.349 ± 0.028.
For “TTTTTTGCTGCTGCTGATCATTTTTTTTTTTTTTTAAACG [GCAAA]” the same measures were 0.559 ± 0.023 and 0.426 ± 0.028.
Consider “TTTTTTGCTGCTGCTGATGATTTTTTTTTTTTTTTAAACC [CCAAA]”, for which the background-corrected fluorescence runs as follows: (dye: Cy3 (3' terminal)) 0.403 ± 0.035; (dye: Cy5 (3' terminal)) 0.29 ± 0.015.
Taken in the same sequence, the figures for “TTTTTTGCTGCTGCTGATGCTTTTTTTTTTTTTTTAAACA [ACAAA]” were 0.51 ± 0.039 and 0.407 ± 0.023.
For “TTTTTTGCTGCTGCTGCGCATTTTTTTTTTTTTTTAAAAT” the same measures were 0.596 ± 0.022 and 0.462 ± 0.077.
In the case of “TTTTTTGCTGCTGCTGCTCATTTTTTTTTTTTTTTAAAAG [GAAAA]”, the background-corrected fluorescence was determined as 0.576 ± 0.021 (dye: Cy3 (3' terminal)) and 0.403 ± 0.03 (dye: Cy5 (3' terminal)).
As to “TTTTTTGCTGCTGCTGCTGATTTTTTTTTTTTTTTAAAAC [CAAAA]”, the background-corrected fluorescence was determined as 0.461 ± 0.048 (dye: Cy3 (3' terminal)) and 0.321 ± 0.019 (dye: Cy5 (3' terminal)).
For “TTTTTTGCTGCTGCTGCTGCTTTTTTTTTTTTTTTAAAAA”, the background-corrected fluorescence worked out at 0.593 ± 0.0096 (dye: Cy3 (3' terminal)) and 0.476 ± 0.026 (dye: Cy5 (3' terminal)).
